Assay [1] concerns the target reduced wheat protein disulfide isomerase (wPDI^R) (wheat) (UniProt P52589). Nature of the assay: ITC; MicroCal VP-ITC; 0.3 mM 1Dx5-NTD^AAA titrated into 70 uM wPDI, 27 additions of 10 uL; 1 mM DTT in both buffers (reduced wPDI); single-site binding model. In general terms: ITC needs no label: the signal is the heat of the interaction.
For assay [2], the target named is oxidized wheat protein disulfide isomerase (wPDI^O) (wheat) (UniProt P52589). Nature of the assay: ITC; MicroCal VP-ITC; 0.3 mM 1Dx5-NTD^AAA titrated into 70 uM wPDI, 27 additions of 10 uL; 0.5 mM GSSG in both buffers (oxidized wPDI); single-site binding model.

Take “1Dx5-NTD^AAA, triple mutant of the N-terminal domain of HMW glutenin subunit 1Dx5 in which all three cysteines were mutated into alanine (domain or fragment)”: the dissociation constant (Kd) (commonly the concentration at which binding is half-saturated) in assay [1] stood at 2.59 µM; in assay [2], 316 µM.

(Values after article PMC11376372.)
